T1: TIGIT antigen expressed on CHO-K1 cells (UniProt Q495A1 22-244)
T1 chain: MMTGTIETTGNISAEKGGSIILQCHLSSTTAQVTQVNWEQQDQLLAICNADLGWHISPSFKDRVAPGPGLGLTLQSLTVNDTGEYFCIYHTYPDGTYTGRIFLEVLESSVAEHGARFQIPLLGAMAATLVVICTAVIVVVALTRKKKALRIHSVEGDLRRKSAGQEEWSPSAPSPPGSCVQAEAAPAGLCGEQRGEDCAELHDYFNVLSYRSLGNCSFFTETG


Experiments:
[1] = target: T1, TIGIT antigen expressed on CHO-K1 cells; experiment: flow cytometry
[2] = target: CD47 antigen expressed on CHO-K1 cells (UniProt Q08722 19-323); experiment: flow
CD47 antigen expressed on CHO-K1 cells, sequence (Q08722 19-323): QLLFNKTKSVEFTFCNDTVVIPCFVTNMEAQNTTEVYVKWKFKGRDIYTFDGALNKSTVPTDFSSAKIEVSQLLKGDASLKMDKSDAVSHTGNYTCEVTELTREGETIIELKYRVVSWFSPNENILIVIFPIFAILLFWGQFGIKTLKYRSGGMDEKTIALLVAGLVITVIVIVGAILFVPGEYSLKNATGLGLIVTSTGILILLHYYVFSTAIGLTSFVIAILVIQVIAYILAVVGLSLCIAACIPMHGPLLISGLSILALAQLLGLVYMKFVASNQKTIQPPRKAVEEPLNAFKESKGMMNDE

Row | Binder | EC50 [1] | EC50 [2]
1 | TIGIT-E-LN (bispecific antibody) heavy: not shown light: EVQLVESGGGLVQPGGSLRLSCAASGYKYGVYSMGWFRQAPGKGLEGVSAICSGGRTTYSDSVKGRFTISRDNSNQILYLQMNSLRAEDTAVYYCAARPLWTGDCDLSSSWYKTWGQGTLVTVSSEPKSSDKTHTSPPSPEIVLTQSPATLSLSPGERATLSCRASENVGTYISWYQQKPGQAPRLLIYGASNRYTGIPARFSGSGSGTDFTLTISSLEPEDFAVYYCGESYGHLYTFGGGTKVEIKRTVAAPSVFIFPPSDEQLKSGTASVVCLLNNFYPREAKVQWKVDNALQSGNSQESVTEQDSKDSTYSLSSTLTLSKADYEKHKVYACEVTHQGLSSPVTKSFNRGEC | 0.0757 nM | 
2 | TIGIT-G9-HN (bispecific antibody) heavy: not shown light: EIVLTQSPATLSLSPGERATLSCRASENVGTYISWYQQKPGQAPRLLIYGASNRYTGIPARFSGSGSGTDFTLTISSLEPEDFAVYYCGESYGHLYTFGGGTKVEIKRTVAAPSVFIFPPSDEQLKSGTASVVCLLNNFYPREAKVQWKVDNALQSGNSQESVTEQDSKDSTYSLSSTLTLSKADYEKHKVYACEVTHQGLSSPVTKSFNRGEC | 0.168 nM | 0.852 nM
3 | TIGIT-E-HC (bispecific antibody) heavy: not shown light: EIVLTQSPATLSLSPGERATLSCRASENVGTYISWYQQKPGQAPRLLIYGASNRYTGIPARFSGSGSGTDFTLTISSLEPEDFAVYYCGESYGHLYTFGGGTKVEIKRTVAAPSVFIFPPSDEQLKSGTASVVCLLNNFYPREAKVQWKVDNALQSGNSQESVTEQDSKDSTYSLSSTLTLSKADYEKHKVYACEVTHQGLSSPVTKSFNRGEC | 0.52 nM | 
4 | TIGIT-G9-LN (bispecific antibody) heavy: not shown light: EVQLVESGGGLVQPGGSLRLSCAASGYKYGVYSMGWFRQAPGKGLEGVSAICSGGRTTYSDSVKGRFTISRDNSNQILYLQMNSLRAEDTAVYYCAARPLWTGDCDLSSSWYKTWGQGTLVTVSSGGGGSGGGSEIVLTQSPATLSLSPGERATLSCRASENVGTYISWYQQKPGQAPRLLIYGASNRYTGIPARFSGSGSGTDFTLTISSLEPEDFAVYYCGESYGHLYTFGGGTKVEIKRTVAAPSVFIFPPSDEQLKSGTASVVCLLNNFYPREAKVQWKVDNALQSGNSQESVTEQDSKDSTYSLSSTLTLSKADYEKHKVYACEVTHQGLSSPVTKSFNRGEC | 0.155 nM | 
5 | TIGIT-G9-LC (bispecific antibody) heavy: not shown light: EIVLTQSPATLSLSPGERATLSCRASENVGTYISWYQQKPGQAPRLLIYGASNRYTGIPARFSGSGSGTDFTLTISSLEPEDFAVYYCGESYGHLYTFGGGTKVEIKRTVAAPSVFIFPPSDEQLKSGTASVVCLLNNFYPREAKVQWKVDNALQSGNSQESVTEQDSKDSTYSLSSTLTLSKADYEKHKVYACEVTHQGLSSPVTKSFNRGECGGGGSGGGSEVQLVESGGGLVQPGGSLRLSCAASGYKYGVYSMGWFRQAPGKGLEGVSAICSGGRTTYSDSVKGRFTISRDNSNQILYLQMNSLRAEDTAVYYCAARPLWTGDCDLSSSWYKTWGQGTLVTVSS | 0.658 nM | 

Further lines, results first:

Row | EC50 [1] | EC50 [2] | Binder
6 | 0.334 nM |  | TIGIT-E-LC (bispecific antibody) heavy: not shown light: EIVLTQSPATLSLSPGERATLSCRASENVGTYISWYQQKPGQAPRLLIYGASNRYTGIPARFSGSGSGTDFTLTISSLEPEDFAVYYCGESYGHLYTFGGGTKVEIKRTVAAPSVFIFPPSDEQLKSGTASVVCLLNNFYPREAKVQWKVDNALQSGNSQESVTEQDSKDSTYSLSSTLTLSKADYEKHKVYACEVTHQGLSSPVTKSFNRGECEPKSSDKTHTSPPSPEVQLVESGGGLVQPGGSLRLSCAASGYKYGVYSMGWFRQAPGKGLEGVSAICSGGRTTYSDSVKGRFTISRDNSNQILYLQMNSLRAEDTAVYYCAARPLWTGDCDLSSSWYKTWGQGTLVTVSS
7 | 0.429 nM | 0.686 nM | TIGIT-G9-HC (bispecific antibody) heavy: not shown light: EIVLTQSPATLSLSPGERATLSCRASENVGTYISWYQQKPGQAPRLLIYGASNRYTGIPARFSGSGSGTDFTLTISSLEPEDFAVYYCGESYGHLYTFGGGTKVEIKRTVAAPSVFIFPPSDEQLKSGTASVVCLLNNFYPREAKVQWKVDNALQSGNSQESVTEQDSKDSTYSLSSTLTLSKADYEKHKVYACEVTHQGLSSPVTKSFNRGEC
8 | 0.132 nM | 0.65 nM | TIGIT-E-HN (bispecific antibody) heavy: not shown light: EIVLTQSPATLSLSPGERATLSCRASENVGTYISWYQQKPGQAPRLLIYGASNRYTGIPARFSGSGSGTDFTLTISSLEPEDFAVYYCGESYGHLYTFGGGTKVEIKRTVAAPSVFIFPPSDEQLKSGTASVVCLLNNFYPREAKVQWKVDNALQSGNSQESVTEQDSKDSTYSLSSTLTLSKADYEKHKVYACEVTHQGLSSPVTKSFNRGEC
9 | ~0.443 nM | 0.00843 nM | anti-CD47 monoclonal antibody (antibody, V domains shown) VH: EVQLVQSGAEVKKPGSSVKVSCKASGYSFTHHWIHWVRQAPGQGLEWMGMIDASDSETRLSQKFKDRVTITADKSTSTAYMELSSLRSEDTAVYYCARLGRYYFDYWGQGTTVTVSS VL: EIVLTQSPATLSLSPGERATLSCRASENVGTYISWYQQKPGQAPRLLIYGASNRYTGIPARFSGSGSGTDFTLTISSLEPEDFAVYYCGESYGHLYTFGGGTKVEIKR

Source: patent publication US20220267475A1 (published 2022)
